Measured values reported in patent publication US20200325476 (published 2020).
Numbering of substitutions follows the chain as printed.

Assays:
[1] = biological target: T1, alpha-synuclein (monomer) (UniProt P37840 P37840:1-140); experiment: MST; 1x PBS, 0.05% Tween-20, 25 C; 50 nM aptamer
[2] = biological target: T1, alpha-synuclein (monomer); experiment: footprint; DNase I; apparent Kd estimated from three bands but value not given in text; DPBS, 37 C
[3] = biological target: T1, alpha-synuclein (monomer); experiment: footprint; DNase I; positive control; apparent Kd estimated from three bands but value not given in text; DPBS, 37 C

B1: a-syn-3 (GdJUhe) (ssDNA)
DNA: ATAGTCCCATCATTCATTGTATGAGATGGGGTGGTGACGTCAGCATGGAGATATTAGCAAGTGTCA
With B1 the Kd [1] was 94.2 nM.

B2: a-syn-1 (1LBwAAjJ) (ssDNA)
DNA: ATAGTCCCATCATTCATTGTAAGGAAACGCTACGGGGTGGGTACGGCAAGATATTAGCAAGTGTCA
B2: binds [2].

B3: a-syn-2 (1LBiGJFJC) (ssDNA)
DNA: ATAGTCCCATCATTCATTGTATGGTACGGCGCGGTGGCGGGTGCGGGGAGATATTAGCAAGTGTCA
Binder B3 has a Kd [1] of 286 nM.

B4: M5-15 (ssDNA)
DNA: B3 DNA with G46T
B4: binds [3].
